Laboratory results: PMC4818781 (EMBO Reports, 2016)
Where “and” joins values, the source holds several entries; their conditions need not be identical. Equal entries are not always repeated. Values belong to the binder of their own block, whether it stands above or below them.

Experiments:
[1] = target: the molecule itself; assay: SEC-MALS; room temperature; 100 μl of protein at 1 mg/ml; 50 mM HEPES pH 8, 150 mM NaCl, 5 mM DTT; elution volumes of SEC also told
[2] = target: hsMis18β_(56–183), Yippee‐like globular domain of human Mis18β (human, UniProt O43482 56-183); assay: as above; details: both partners purified
[3] = target: the molecule itself; assay: SEC-MALS; room temperature; 100 μl of protein at 1 mg/ml; 50 mM HEPES pH 8, 300 mM NaCl, 1 mM TCEP
[4] = target: the molecule itself; assay: SEC-MALS; room temperature; 100 μl of protein at 1 mg/ml; 50 mM HEPES pH 8, 50 mM NaCl, 5 mM DTT

Sequence of hsMis18β_(56–183), Yippee‐like globular domain of human Mis18β (O43482 56-183): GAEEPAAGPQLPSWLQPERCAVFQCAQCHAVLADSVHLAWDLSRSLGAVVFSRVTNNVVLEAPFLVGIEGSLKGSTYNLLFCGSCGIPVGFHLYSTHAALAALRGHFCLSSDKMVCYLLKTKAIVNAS

- stoichiometry N [2]: 1
B1: His‐hsMis18α_(77–187), Yippee‐like globular domain of human Mis18α (domain or fragment, UniProt Q9NYP9 77-187, looked up)
chain: EERPLVFLCSGCRRPLGDSLSWVASQEDTNCILLRCVSCNVSVDKEQKLSKREKENGCVLETLCCAGCSLNLGYVYRCTPKNLDYKRDLFCLSVEAIESYVLGSSEKQIVS
- stoichiometry N [1]: 2

B2: His‐GFP‐spMis18_(C‐term‐α), C‐terminal α‐helical domain of S. pombe Mis18 (domain or fragment, Schizosaccharomyces pombe, UniProt Q9P802 121-194, looked up)
chain: VNPEGLTRYQVDLEMREDIIKLKSFCLSLYEKFELHDETLRSVKETISSLKKPKIEGKEGKKEKARTYSKRTRK
- stoichiometry N [1]: 3

B3: His‐spMis18_(1–120), N‐terminal Yippee‐like globular domain of S. pombe Mis18 (domain or fragment, Schizosaccharomyces pombe, UniProt Q9P802 1-120, looked up)
chain: MSQTETSHSGYIDFKKESQPSVFQCKKCFQIVGDSNAWVISHREYLSFTLSDAVENSVRVEDTFKRSDDGLCVYSELSCTRCNEVIGKVYNSTPIYLDDIRDMYTFSMDKLQAYQLGNKT
- stoichiometry N [1]: 2

B4: His‐GFP‐spMis18fl, recombinant full‐length S. pombe Mis18 (natural protein, Schizosaccharomyces pombe, UniProt Q9P802 1-194, looked up)
chain: MSQTETSHSGYIDFKKESQPSVFQCKKCFQIVGDSNAWVISHREYLSFTLSDAVENSVRVEDTFKRSDDGLCVYSELSCTRCNEVIGKVYNSTPIYLDDIRDMYTFSMDKLQAYQLGNKTVNPEGLTRYQVDLEMREDIIKLKSFCLSLYEKFELHDETLRSVKETISSLKKPKIEGKEGKKEKARTYSKRTRK
- stoichiometry N [3]: 4 and 2

B5: His‐spMis18ΔC (amino acids 1–168) (domain or fragment, Schizosaccharomyces pombe, UniProt Q9P802 1-168, looked up)
chain: MSQTETSHSGYIDFKKESQPSVFQCKKCFQIVGDSNAWVISHREYLSFTLSDAVENSVRVEDTFKRSDDGLCVYSELSCTRCNEVIGKVYNSTPIYLDDIRDMYTFSMDKLQAYQLGNKTVNPEGLTRYQVDLEMREDIIKLKSFCLSLYEKFELHDETLRSVKETIS
- stoichiometry N [4]: 2 and 4
